Test [1] deals with T1, recombinant human C1r2s2 Flag/His tetramer (human, UniProt P09871 16-688; P00736 18-705).
T1 construct: whole entries named; also called hc1r2s2; rC1r2s2
T1 chain 1: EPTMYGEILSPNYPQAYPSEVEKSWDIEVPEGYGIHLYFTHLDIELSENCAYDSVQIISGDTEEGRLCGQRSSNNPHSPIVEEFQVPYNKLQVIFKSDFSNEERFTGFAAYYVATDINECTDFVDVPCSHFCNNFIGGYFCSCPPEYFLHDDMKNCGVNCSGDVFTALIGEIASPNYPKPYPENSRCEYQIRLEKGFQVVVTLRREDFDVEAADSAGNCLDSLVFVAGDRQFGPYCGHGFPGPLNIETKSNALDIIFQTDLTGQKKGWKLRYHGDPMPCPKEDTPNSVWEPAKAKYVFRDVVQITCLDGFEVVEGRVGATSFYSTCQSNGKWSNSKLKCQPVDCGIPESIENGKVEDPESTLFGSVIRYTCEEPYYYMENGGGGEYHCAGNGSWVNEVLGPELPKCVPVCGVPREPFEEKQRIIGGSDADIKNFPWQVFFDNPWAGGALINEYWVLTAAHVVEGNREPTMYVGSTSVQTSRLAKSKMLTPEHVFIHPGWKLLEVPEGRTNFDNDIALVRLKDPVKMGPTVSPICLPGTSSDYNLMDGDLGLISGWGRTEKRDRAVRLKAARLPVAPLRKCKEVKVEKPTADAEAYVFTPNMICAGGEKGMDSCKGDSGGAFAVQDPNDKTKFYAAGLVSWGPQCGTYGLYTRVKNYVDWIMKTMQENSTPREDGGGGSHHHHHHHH
T1 chain 2: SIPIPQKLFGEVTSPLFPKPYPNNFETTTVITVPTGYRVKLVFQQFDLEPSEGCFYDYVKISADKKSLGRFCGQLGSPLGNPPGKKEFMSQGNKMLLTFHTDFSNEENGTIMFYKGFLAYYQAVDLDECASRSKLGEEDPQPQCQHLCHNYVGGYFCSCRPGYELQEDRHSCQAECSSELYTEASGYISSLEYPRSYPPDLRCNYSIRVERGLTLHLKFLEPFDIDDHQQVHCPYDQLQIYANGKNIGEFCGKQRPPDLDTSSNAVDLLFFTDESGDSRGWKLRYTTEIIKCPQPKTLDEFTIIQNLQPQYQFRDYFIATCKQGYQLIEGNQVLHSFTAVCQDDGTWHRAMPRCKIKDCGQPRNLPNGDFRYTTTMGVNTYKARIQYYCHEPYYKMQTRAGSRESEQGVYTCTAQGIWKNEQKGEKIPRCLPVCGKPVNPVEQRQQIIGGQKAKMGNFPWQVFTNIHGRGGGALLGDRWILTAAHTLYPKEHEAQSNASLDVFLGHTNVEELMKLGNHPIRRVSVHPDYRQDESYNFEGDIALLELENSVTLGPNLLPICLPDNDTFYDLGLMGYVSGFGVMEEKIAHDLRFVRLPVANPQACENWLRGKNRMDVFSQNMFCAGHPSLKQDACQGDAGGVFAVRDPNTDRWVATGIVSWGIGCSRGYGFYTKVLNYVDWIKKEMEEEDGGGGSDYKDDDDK
The test is described as follows: SPR displacement (37 degrees C, pH 7.4): C1r2s2 captured by anti-His, C1q 100 nM pre-bound, antibody 500 nM at 10 micro L/min; time from antibody injection until the antibody sensorgram falls below the buffer sensorgram; competitor native human C1q. As to the method: An anti-His antibody (GE-Healthcare) is immobilized onto all flow cells of a CM4 sensor chip using an amine coupling kit (GE Healthcare). The antibodies, recombinant human C1r2s2 Flag/His tetramer and native human C1q (Comptech A099) are prepared in pH 7.4 buffer (20 mM ACES, 150 mM NaCl, 1.2 mM CaCl₂, 1 mg/mL BSA (IgG-free), 1 mg/mL CMD, 0.05% Tween 20, 0.005% NaN₃, pH 7.4). Recombinant human C1r2s2 Flag/His tetramer is first captured onto the sensor surface by the anti-His antibody (“hc1r2s2”). The capture levels are aimed at 200 resonance unit (RU). Native human C1q is injected at 100 nM to have a capture of 200 RU (“hc1q”), followed by antibody injection at 500 nM at 10 micro L/min for 1200 sec immediately. The sensor surface is regenerated each cycle with 10 mM Glycine-HCl (pH 1.5). For antibodies with the C1q displacement function, the response unit of Sensorgram 2 (in the presence of C1r2s2, C1q, and antibody) is lower than the response unit in Sensorgram 1 (in the presence of C1r2s2, C1q, and buffer, but in the absence of antibody) after the time point where Sensorgrams 1 and 2 cross (“time point of crossover”).
The time point of crossover is identified by subtraction of the buffer response (Sensorgram 1) from the antibody (Ab) response (Sensorgram 2), and referring to the time point when the differential value changes from positive to negative (Table 5).

In test [2] the target is T2, recombinant human C1r CCP1-CCP2-SP-FLAG (human, UniProt P00736 307-705).
T2 construct: Truncated protein lacking the CUB1-EGF-CUB2 domain of C1r; also called human C1r CCP1-CCP2-SP I307-D705
T2 chain: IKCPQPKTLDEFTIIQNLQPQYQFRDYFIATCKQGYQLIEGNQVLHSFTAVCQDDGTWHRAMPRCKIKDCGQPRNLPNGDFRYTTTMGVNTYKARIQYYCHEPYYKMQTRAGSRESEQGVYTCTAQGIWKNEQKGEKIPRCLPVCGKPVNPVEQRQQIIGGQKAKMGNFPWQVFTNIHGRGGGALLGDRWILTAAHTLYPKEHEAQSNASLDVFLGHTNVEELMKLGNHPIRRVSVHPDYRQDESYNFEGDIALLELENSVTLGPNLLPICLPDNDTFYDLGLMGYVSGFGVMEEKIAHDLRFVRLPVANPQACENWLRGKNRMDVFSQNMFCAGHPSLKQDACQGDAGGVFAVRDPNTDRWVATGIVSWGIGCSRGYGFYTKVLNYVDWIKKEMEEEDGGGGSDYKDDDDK
Kind of test: SPR (BIACORE T200, 37 degrees C, pH 7.4, 1.2 mM CaCl2), antibody captured by protein A/G.

Where a chain is given by its changes, count along the chain named.

B1: COR0011bb-SG1148 (antibody, human IgG1, kappa, V domains shown)
VH: QSLEESGGRLVTPGTPLTLTCTASGFTFSGYYMCWVRQTPGKGLEYIGIIASSGNTYYANWAKGRFTISKTSSTTVDLKMTSLTTEDTATYFCAKPESDYVNGMGLWGPGTLVTVSS
VL: DIVMTQTPASVSDPVGGTVTIKCQASQSIYNLLSWYQQKPGQRPKLLIYDASKLASGVPSRFKGSGYGTDFTLTISDLGCADAATYYCQSNYGYSRTDDTFFYGFGGGTKVEIKR
notes: Anti-C1r antibody
Turning to B1, in test [1], the “Time point of crossover (post-injection)” value was determined as 613 s. The binding result in test [2] is on record as “no binding (tested: 50 nM)”.

B2: COR0278bb-SG1148 (antibody, human IgG1, kappa, V domains shown)
VH: QSLEESGGRLVTPGTPLTLTCTASGFSLSSYDMTWVRQAPGKGLEWIGIIYTLGSAYYASWAKGRFTISRTSTTVDLKMTSPTTEDTATYFCARGGDSYGAVDTAFDLWGPGTLVTVSS
VL: AQVLTQTPSPVSAAVGGTVTISCQSSPSVYSNYLSWYQQKPGQPPKLLIYRASRLASGVPSRFKGSGSGTQFTLTISEVQCDDAATYYCQGYFGNGINAFGGGTKVEIKR
notes: Anti-C1r antibody
Consider B2, for which the “Time point of crossover (post-injection)” value in test [1] stood at 218 s. For the same molecule, the binding result in test [2] is recorded as “no binding (tested: 50 nM)”.

B3: COR0208cc-SG1148 (antibody, human IgG1, kappa, V domains shown)
VH: QSVEESGGRLVTPGTPLTLTCTVSGFSLSNYYMNWVRQAPGKGLEWIGIIASDDNTWYASWAKGRFTISKTSTTVDLKITSPTTEDTATYFCARDLDVGYGSGWYDLWGQGTLVTVSS
VL: AAVLTQTPSPVSVAVGGTVTINCQASQSVYNNNYLAWYQQEPGHRPKLLIYRASKLASGVPSRFSGSGSGTQFTLTISGVQCDDAATYYCLGGYDDFTDTTFGGGTKVEIKR
notes: Anti-C1r antibody; also called COR208; COR208cc(-SG1148)
On to B3, for which the “Time point of crossover (post-injection)” value in test [1] came out at 197 s. Moreover, the binding result in test [2] is recorded as “no binding (tested: 50 nM)”.

B4: COR0205gg-SG1148 (antibody, human IgG1, kappa, V domains shown)
VH: QSLEESGGGLFKPTDTLTLTCTVSGFSLSSNAMSWVRQAPGKGLEYIGIIYLTGVTYYATWAKGRFTISKTSTTVDLKITSPTTEDTATYFCAGGEFSLWGPGTLVTVSS
VL: DIIMTQTPASVEAAVGGTVTIKCQASQGIDNYFSWHQQKPGQPPKLLIYKASTLASGVSSRFKGSGSGTEFTLTISDLECDDAATYYCQCTYGYNINDNYGNAFGGGTKVEIKR
notes: Anti-C1r antibody; also called COR205gg(-SG1148)
For B4, in test [1], the “Time point of crossover (post-injection)” value was 216 s. Also, the binding result in test [2] is recorded as “no binding (tested: 50 nM)”.

B5: COR0067ff-SG1148 (antibody, human IgG1, kappa, V domains shown)
VH: QSLEESGGGLVQPEGSLTLTCKASGIDFSSNAMCWVRQAPGKGLEWIGCIYTGSTTIWYASWAKGRFTISKTSSTTVTLQLNSLTVADTATYFCARRDSSSGYAFKLWGPGTLVTVSS
VL: DIVMTQTPSSVSAAVGGTVTIKCQASENIYSNLAWYQQKSGQPPNLLIYGASTLESGVPSRFKGSGSGTEFTLTISDLECADAAIYYCQCTYDDSSTFGGGTKVEIKR
notes: Anti-C1r antibody
For the molecule B5, in test [1], the “Time point of crossover (post-injection)” value was 85 s. The binding result in test [2] is “no binding (tested: 50 nM)”.

B6: COR0338gg-SG1148 (antibody, human IgG1, kappa, V domains shown)
VH: B5 VH with G48A, S61T, D98A
VL: B5 VL with I2V, S9F, N28S, S40P, A81D
notes: Anti-C1r antibody
B6: the “Time point of crossover (post-injection)” value in test [1] came to 101 s. In test [2], the binding result was “no binding (tested: 50 nM)”.

B7: COR0058bb-SG1148 (antibody, human IgG1, kappa, V domains shown)
VH: QSVEESGGRLVTPGTPLTLTCTASGFDISNYNMQWVRQSPGKGLEWIGIIWSGGYTDYANWAKGRFTISATSTTVDLKSTSPTTEDTATYFCARQGANFGDYTVDLWGPGTLVTVSS
VL: AYDMTQTPASVEVAVGGTVTIKCQASQSIRSSLAWYQQKPGQRPKLLIYRASTLASGVSSRFKGSGSGTQFTLTISGVECADAATYYCQQGYSNINVDNTFGGGTKVEIKR
notes: Anti-C1r antibody
With B7, the “Time point of crossover (post-injection)” value in test [1] turned out to be 235 s. Further, the binding result in test [2] is given as “no binding (tested: 50 nM)”.

B8: COR0212bb-SG1148 (antibody, human IgG1, kappa, V domains shown)
VH: QEQLKESGGGLVTPGGTLTLTCTASGFSLSSYDMSWVRQAPGKGLDWIGIINTGGSAYYATWAKGRFTISKTSTTVDLKITSPTTEDTATYFCGRKINDAFDPWGPGTLVTVSS
VL: AQVLTQTPFSVSAAVGGTVTINCQASESISSNLAWYQQKPGQPPKLLIYDASDLASGVPSRFKGSGSGKQFTLTISGVQCDDAATYFCQHGWIYDTIDSNCFGGGTKVEIKR
notes: Anti-C1r antibody
Turning to B8, in test [1], the “Time point of crossover (post-injection)” value was 432 s. Also, in test [2], the binding result is “no binding (tested: 50 nM)”.

(Values after patent US20210198347A1 (Chugai, published 2021).)
